Patent US20160263155A1, “T CELL RECEPTORS DIRECTED AGAINST THE PREFERENTIALLY EXPRESSED ANTIGEN OF MELANOMA AND USES THEREOF” (LEIDEN UNIVERSITY MEDICAL CENTER, priority 2015, published 2016)
Residue numbers refer to the chain shown, from its start. Numbers in names are those of the source.

B1: ^402GCFNF^406AAAAA: Caspase-9 homodimerization domain mutant (SEQ ID NOS 95 and 99) (protein, UniProt P55211 1-416, looked up, variant G402A C403A F404A N405A F406A)
chain: MDEADRRLLRRCRLRLVEELQVDQLWDALLSRELFRPHMIEDIQRAGSGSRRDQARQLIIDLETRGSQALPLFISCLEDTGQDMLASFLRTNRQAAKLSKPTLENLTPVVLRPEIRKPEVLRPETPRPVDIGSGGFGDVGALESLRGNADLAYILSMEPCGHCLIINNVNFCRESGLRTRTGSNIDCEKLRRRFSSLHFMVEVKGDLTAKKMVLALLELAQQDHGALDCCVVVILSHGCQASHLQFPGAVYGTDGCPVSVEKIVNIFNGTSCPSLGGKPKLFFIQACGGEQKDHGFEVASTSPEDESPGSNPEPDATPFQEGLRTFDQLDAISSLPTPSDIFVSYSTFPGFVSWRDPKSGSWYVETLDDIFEQWAHSEDLQSLLLRVANAVSVKGIYKQMPAAAAALRKKLFFKTS
B2: ^402GCFNF^406CIVSM: Caspase-9 homodimerization domain mutant (SEQ ID NOS 95 and 101) (Casp-3) (protein, UniProt P55211 1-416, looked up, variant G402C C403I F404V N405S F406M)
chain: B1 chain with A402C, A403I, A404V, A405S, A406M
B3: ^402GCFNF^406YCSTL: Caspase-9 homodimerization domain mutant (SEQ ID NOS 95 and 100) (Casp-2) (protein, UniProt P55211 1-416, looked up, variant G402Y F404S N405T F406L)
chain: B1 chain with A402Y, A403C, A404S, A405T, A406L
B4: ^402GCFNF^406QPTFT: Caspase-9 homodimerization domain mutant (SEQ ID NOS 95 and 102) (Casp-8) (protein, UniProt P55211 1-416, looked up, variant G402Q C403P F404T N405F F406T)
chain: B1 chain with A402Q, A403P, A404T, A405F, A406T
B5: L329K (protein)
chain: GFGDVGALESLRGNADLAYILSMEPCGHCLIINNVNFCRESGLRTRTGSNIDCEKLRRRFSSLHFMVEVKGDLTAKKMVLALLELAQQDHGALDCCVVVILSHGCQASHLQFPGAVYGTDGCPVSVEKIVNIFNGTSCPSLGGKPKLFFIQACGGEQKDHGFEVASTSPEDESPGSNPEPDATPFQEGLRTFDQKDAISSLPTPSDIFVSYSTFPGFVSWRDPKSGSWYVETLDDIFEQWAHSEDLQSLLLRVANAVSVKGIYKQMPGCFNFLRKKLFFKTS
B6: D330A-T317E (protein)
chain: B5 chain with T183E, K195L, D196A
B7: L329G (protein)
chain: B5 chain with K195G
B8: D327G (protein)
chain: B5 chain with D193G, K195L
B9: F404S (protein)
chain: B5 chain with K195L, F270S
B10: D330A-N405T (protein)
chain: B5 chain with K195L, D196A, N271T
B11: Q328R (protein)
chain: B5 chain with Q194R, K195L
B12: F404A (protein)
chain: B5 chain with K195L, F270A
B13: G402A (protein)
chain: B5 chain with K195L, G268A
B14: D330A-Y153A (protein)
chain: B5 chain with Y19A, K195L, D196A
B15: D327K (protein)
chain: B5 chain with D193K, K195L
B16: F406L (protein)
chain: B5 chain with K195L, F272L
B17: D327R (protein)
chain: B5 chain with D193R, K195L
B18: F326K (protein)
chain: B5 chain with F192K, K195L
B19: Q328K (protein)
chain: B5 chain with Q194K, K195L
B20: D315A-D330A (protein)
chain: B5 chain with D181A, K195L, D196A
B21: A331K (protein)
chain: B5 chain with K195L, A197K
B22: T317E (protein)
chain: B5 chain with T183E, K195L
B23: D330A-Y153F (protein)
chain: B5 chain with Y19F, K195L, D196A
B24: G402I (protein)
chain: B5 chain with K195L, G268I
B25: G402Q (protein)
chain: B5 chain with K195L, G268Q

system: chimeric Caspase-9 polypeptide; assay: Caspase mutant classes and basal activity (Table 3); type: cell-based, human; settings: class heading of Table 3
Sequence (as listed by the source, change not shown): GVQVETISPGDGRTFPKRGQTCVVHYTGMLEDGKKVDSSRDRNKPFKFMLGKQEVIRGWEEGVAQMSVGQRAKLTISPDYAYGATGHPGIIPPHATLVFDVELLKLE

Row | Molecule | Basal Activity
1 | B1 | dead
2 | B2 | dead
3 | B3 | dead
4 | B4 | dead
5 | B5 | Increased
6 | B6 | dead
7 | B7 | Increased
8 | B8 | Increased
9 | B9 | dead
10 | B10 | Increased
11 | B11 | Increased
12 | B12 | dead
13 | B13 | dead
14 | B14 | dead
15 | B15 | Increased
16 | B16 | dead
17 | B17 | Increased
18 | B18 | Increased
19 | B19 | Increased
20 | B20 | dead
21 | B21 | Increased
22 | B22 | Increased
23 | B23 | dead
24 | B24 | dead
25 | B25 | dead
